Experimental data published in the supplement of paper PMC12764529.
± gives the half width of the 95% confidence interval.

Legend:
[1] = folding stability dG unfold from chymotrypsin proteolysis; higher = more stable
Summary of the method: (§1)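 K50 was inferred by Bayesian fitting of sequencing counts obtained after protease digestion of designed mini-proteins. Unfolding free energy was derived by comparison with a sequence-predicted unfolded-state K50 and a shared folded-state K50, for each protease or both combined. The mini-proteins were under 80 residues, had no cysteine, were carried in a PA-tagged cDNA display construct, and were kept only if AlphaFold2 dimer inter-PAE exceeded 15.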

[2] = folding stability dG unfold (combined trypsin and chymotrypsin); higher = more stable
Summary of the method: as §1

[3] = folding stability dG unfold from trypsin proteolysis; higher = more stable
Summary of the method: as §1

Row | Sequence | folding stability dG unfold [1] | folding stability dG unfold [2] | folding stability dG unfold [3]
1 | SAMPIESVEFHPEEGVITLRFRAPAHPDAEKFEIEVVVDGAEAGEIEVEVDPETNEVRALVRVKIPKGASAG [r14_244_TrMRF] | 4.23 ± 0.059 kcal/mol | 3.7 ± 0.25 kcal/mol | 2.71 ± 0.1 kcal/mol
2 | SAMPIPNKNVVIRAKRSPDGTWDLTITVDNEKLGSKKAKTEEELKALVEEIAKEIAEKLGPGNVTVVEESAG [r14_791_JUSTAS] | 2.54 ± 0.15 kcal/mol | 2.69 ± 0.22 kcal/mol | 2.74 ± 0.28 kcal/mol
3 | SAMPIQIMVERDPDDGYIKVTIMFRSDSPEEAYELIETLFENLGVEVNIERYPEEGYFMIEVEIRLPPGSAG [r14_424_TrROS] | 4.13 ± 0.33 kcal/mol | 3.89 ± 0.21 kcal/mol | 3.45 ± 0.23 kcal/mol
4 | SAMPLEDMTPEQAEEFAKEFINRFQQENQKKGGPIPPGQEIEIPVRYKGGPVYIKITVTNPGNINIEVESAG [r14_501_TrROS] | 0.708 ± 0.095 kcal/mol | 0.663 ± 0.13 kcal/mol | 0.448 ± 0.048 kcal/mol
5 | SAMRMISFPIESPEELEDELEEKFGVEVETFPDGMRMIKFRRNNEPVIIMIPPNNGHITIIPPEDMDKMSAG [r14_402_TrROS] | 1.28 ± 0.21 kcal/mol | 1.01 ± 0.15 kcal/mol | 0.685 ± 0.19 kcal/mol
6 | SAMSPEEIRARARALLEEKYPDKPYTLLSVEVDPSTGRVTVTWESPTPEKTTVTTPLTVTFGADGSLRESAG [r14_183_JUSTAS] | 1.973 ± 0.017 kcal/mol | 2.02 ± 0.029 kcal/mol | 2.028 ± 0.012 kcal/mol
7 | SAMTITVTAPPGYTLNVTVTLAGGVPLTRTFSPSQSIDITIPEGTPFSLTVTTTAPGGEVATSTLTVPLSAG [r14_568_JUSTAS] | 3.171 ± 0.018 kcal/mol | 3.19 ± 0.094 kcal/mol | 3.19 ± 0.12 kcal/mol
8 | SAMTIVLTLDEIAELLGLEKGESVEELRERIRELIRRLEEEGYRVTSITIEEVDGELVITVEIEPPPPESAG [r14_158_TrROS_Hall] | 5.23 ± 0.21 kcal/mol | 4.89 ± 0.21 kcal/mol | 3.38 ± 0.2 kcal/mol
9 | SAMTKEEAKENGHIYIMVKIEVTWPNGGKREFPIFFPFPSLDEAKEQIRSFFRRMNFKVKIDDISIFPVSAG [r14_854_TrROS] | 3.745 ± 0.027 kcal/mol | 3.53 ± 0.049 kcal/mol | 2.98 ± 0.048 kcal/mol
10 | SAMTLRIELTKEELEKLIKELKPGDEVELEIEVNGRTYRIRAKITRIERVDDKVYIEVELEIEELPEEESAG [r14_335_TrROS_Hall] | 4.75 ± 0.064 kcal/mol | 4.63 ± 0.13 kcal/mol | 4.46 ± 0.11 kcal/mol
11 | SAMTLTLTVPPGAKVRVRITNENGETTEIEVEPGETVTITLPAGSTVRVEVEVVDPDGRKRTETFTLKPSAG [r14_568_TrROS_Hall] | 3.22 ± 0.07 kcal/mol | 3.27 ± 0.15 kcal/mol | 3.46 ± 0.11 kcal/mol
12 | SAMTPEFFETIKEASREGDIAAVLEAAEAIKTEFPDTGLTVDVVIEPREDDRFVIEVRVDYPPNLEGLASAG [r14_690_TrMRF] | -0.212 ± 0.11 kcal/mol | -0.0704 ± 0.18 kcal/mol | -0.142 ± 0.039 kcal/mol
13 | SAMTPETERKLLEAPKTGDVEAVREAAEEIEKEYPGKGLVVTVTVSPLSDGTWEVEVTVELPPNLPELASAG [r14_690_JUSTAS] | 0.27 ± 0.097 kcal/mol | 0.437 ± 0.38 kcal/mol | 0.702 ± 0.12 kcal/mol
14 | SAMTVEIEFPPELEVEELVEKLKEAFPGEEIEVEAERDPVEPRLRIRVTVDDPELAEEVEKKLRELVEESAG [r14_443_TrMRF] | 2.21 ± 0.1 kcal/mol | 3 ± 0.12 kcal/mol | 3.34 ± 0.15 kcal/mol
15 | SAMTVERLPDGSLRITIPDPNSDTTYTIEIRRLPDGSYEVTITTTKPDGSTTTTTRPMSEEEAIAEVLASAG [r14_179_JUSTAS] | 3.54 ± 0.068 kcal/mol | 3.6 ± 0.055 kcal/mol | 3.75 ± 0.061 kcal/mol
16 | SAMTVVIPPNLTALTEDGRPIHPDQVVEVYEAEAFPELGRVVARVKVFDPVSGEETEERLVLFFPDGAESAG [r14_258_TrMRF] | 1.66 ± 0.021 kcal/mol | 1.53 ± 0.036 kcal/mol | 1.26 ± 0.033 kcal/mol
17 | SAMTVYYKITAEVEKTIGDTPETLTVPLTLTVPPDKLNEEEIKKIAEEKAKELGYTLKKIEISKTPSLPSAG [r14_278_JUSTAS] | 2.06 ± 0.17 kcal/mol | 2.11 ± 0.21 kcal/mol | 2.22 ± 0.084 kcal/mol
18 | SAMTYTLTPAGGKTITVTLNPDGSITITSTSTSSSLPLSPDAKITSVTFDAATGTITITLNSKPITIPASAG [r14_276_JUSTAS] | 1.74 ± 0.17 kcal/mol | 1.92 ± 0.15 kcal/mol | 1.9 ± 0.057 kcal/mol
